The values that follow come from patent publication US20200277377A1 (WUXI BIOLOGICS SHANGHAI, published 2020).

The target of assay [1] is T1, hCTLA4_ECD.His (N145Q) (human, UniProt P16410 36-161).
T1 construct: extracellular domain; Glycosylation-site mutein, expressed in HEK293F cells; also called CTLA-4 N145Q
T1 sequence (looked up): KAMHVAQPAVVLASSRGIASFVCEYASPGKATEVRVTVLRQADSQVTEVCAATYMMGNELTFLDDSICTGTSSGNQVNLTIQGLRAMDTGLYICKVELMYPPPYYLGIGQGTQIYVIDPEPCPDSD
As to the kind of experiment: capture ELISA: W3162-1.146.19-z12 captured on anti-human Fc, hCTLA4-His mutein supernatant titrated (ng/ml), HRP-anti-His [B].

The target in assay [2] is T2, Murine CTLA-4.ECD-6×His (mouse, UniProt P09793 36-161).
T2 construct: extracellular domain; Bought; also called mouse CTLA-4.ECD-6×His; mouse CTLA-4 ECD
The experiment in a line: SPR, antibody captured on anti-human Fc, CTLA-4.ECD-6×His as analyte, 1:1 fit. The procedure, abridged:
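Goat anti-human IgG Fcγ amine-coupled to a CM5 chip captured antibodies (4 μg/mL in HBS-EP+). CTLA-4-ECD-6×His was injected at a concentration series, with reference- and buffer-channel subtraction. Kinetics were fitted 1:1, and 10 mM glycine pH 1.5 regeneration was used after each dissociation.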

Assay [3] deals with T1, hCTLA4_ECD.His (N145Q). As to the kind of experiment: capture ELISA: W3162-1.154.8-z35 captured on anti-human Fc, hCTLA4-His mutein supernatant titrated (ng/ml), HRP-anti-His [C]. In general terms: An ELISA detects its analyte on a solid surface through an enzyme-linked reagent.

B1: W3162-1.146.19-z12-uAb.IgG1K (antibody, V domains shown)
VH: QVQLQESGPGLVKPSETLSLTCSVTYHTITSGYDWTWIRKPPGKGMEWIGYISYSGNTNYNPSLKSRVTISRDTSKNQFFLKLSSVTAADTAVYYCASMMVPHYYVMDAWGQGTLVTVSS
VL: DIVMTQTPLSLSVTPGQPASISCRSSQSLLNSDGNTYLYWYLQKPGQSPQLLIYLVSKLGSGVPNRFSGSGSGTDFTLKISRVEAEDVGVYYCVQGTHDPWTFGGGTKVEIK
notes: Humanized; label says IgG1K
The EC50 (read off the curve) is the concentration that produces a half-maximal response. A word on the Kd: it is a measure of binding affinity in units of concentration. Higher therefore signals lower affinity. One may read the koff as a measure of how fast the partners let go of each other. Broadly, the kon is the rate constant with which the complex forms. High values mean fast association, low ones slow association. In the case of B1, the “EC50 (read off the curve)” value in assay [1] was around 0.09 µg/mL. In addition, in assay [2], the Kd was found to be 1.39 nM, the koff turned out to be 0.000239 s⁻¹ and the kon amounted to 172000 M⁻¹ s⁻¹.

B2: W3162_1.154.8-z35-uAb.IgG1K (antibody, V domains shown)
VH: QVQLVQSGAEVKKPGSSVKVSCKASGYTFTNYFMNWVRQAPGQGLEWMGRVDPEQGRADYAEKFKKRVTITADKSTSTAYMELSSLRSEDTAVYYCARRAMDNYGFAYWGQGTLVTVSS
VL: EIVLTQSPDFQSVTPKEKVTITCSANSALSYMYWYQQKPDQSPKLWVHGTSNLASGVPSRFSGSGSGTDFTLTINSLEAEDAATYYCHHWSNTQWTFGGGTKVEIK
notes: Humanized; label says IgG1K
As to B2, the “EC50 (read off the curve)” value in assay [3] was around 0.003 µg/mL.
